1 molecule from patent US20050074865A1 can be followed below.

This assay addresses recombinant human TNFα (RDI) (human) (UniProt P01375). The experiment in a line: cell-based or functional assay.

Sequence of recombinant human TNFα (RDI) (human) (P01375 77-233 limits assumed): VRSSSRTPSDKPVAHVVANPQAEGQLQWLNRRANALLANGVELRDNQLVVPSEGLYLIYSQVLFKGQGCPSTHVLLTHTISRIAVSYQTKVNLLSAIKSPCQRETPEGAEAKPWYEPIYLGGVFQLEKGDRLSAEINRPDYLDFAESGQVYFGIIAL

B1: MMP7 (enzyme, UniProt P09237 95-267, looked up, species assumed)
Matrilysin: YSLFPNSPKWTSKVVTYRIVSYTRDLPHITVDRLVSKALNMWGKEIPLHFRKVVWGTADIMIGFARGAHGDSYPFDGPGNTLAHAFAPGTGLGGDAHFDEDERWTDGSSLGINFLYAATHELGHSLGMGHSSDPNAVMYPTYGNGDPQNFKLSQDDIKGIQKLYGKRSNSRKK
On to B1, for which the L929 cell survival at the dilution equivalent to ~600 pg/ml TNFα (reference standard: 10% survival) was 40 % survival and the log reduction in TNFα activity at the 50% survival level, L929 cytotoxicity bioassay after overnight digestion is 1.22 log.
